According to US20260167721A1 (ABLEXIS, published 2026):

Experiments:
[1] = target: T1, human CD3 (on human Pan-T cells or donor PBMC) (human, UniProt P07766 23-207; P04234 22-171; P09693 23-182; P20963 22-164); assay: cell-based or functional assay
[2] = target: T1, human CD3 (on human Pan-T cells or …); assay: cell-based or functional assay; remark: listed apart in the source

T1 sequence (P07766 23-207, chain 1 of 4): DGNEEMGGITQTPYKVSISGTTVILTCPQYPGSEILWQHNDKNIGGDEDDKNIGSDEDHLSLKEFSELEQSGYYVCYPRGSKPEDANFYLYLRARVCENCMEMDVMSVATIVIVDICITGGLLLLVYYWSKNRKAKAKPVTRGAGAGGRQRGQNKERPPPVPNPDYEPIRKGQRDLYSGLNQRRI
T1 sequence (P04234 22-171, chain 2 of 4): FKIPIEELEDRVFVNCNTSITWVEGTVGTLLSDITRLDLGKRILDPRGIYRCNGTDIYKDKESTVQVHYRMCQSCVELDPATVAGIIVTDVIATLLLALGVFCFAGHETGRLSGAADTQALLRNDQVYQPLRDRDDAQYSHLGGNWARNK
T1 sequence (P09693 23-182, chain 3 of 4): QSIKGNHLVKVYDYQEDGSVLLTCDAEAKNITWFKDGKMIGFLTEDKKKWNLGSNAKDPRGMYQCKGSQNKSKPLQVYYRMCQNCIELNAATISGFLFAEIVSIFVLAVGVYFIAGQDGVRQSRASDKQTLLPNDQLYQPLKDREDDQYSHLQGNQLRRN
T1 sequence (P20963 22-164, chain 4 of 4): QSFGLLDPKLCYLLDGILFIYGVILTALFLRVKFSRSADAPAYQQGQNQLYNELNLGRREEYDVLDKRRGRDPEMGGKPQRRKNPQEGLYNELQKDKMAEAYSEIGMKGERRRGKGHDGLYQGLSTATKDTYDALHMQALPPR

| Binder | RTCC Assay, Donor 0, EC50 [1] | RTCC Assay, Donor 0, gMFI max [1] | RTCC Assay, Donor 1, EC50 [1] | RTCC Assay, Donor 1, gMFI max [1] | RTCC Assay, Donor 2, EC50 [1] | RTCC Assay, Donor 2, gMFI max [1] | RTCC Assay, Donor 3, EC50 [1] | RTCC Assay, Donor 3, gMFI max [1] | Cytokine Release Assay (IFNγ), Donor 0, EC50 [2] | Cytokine Release Assay (IFNγ), Donor 0, gMFI max [2] | Cytokine Release Assay (IFNγ), Donor 1, EC50 [2] | Cytokine Release Assay (IFNγ), Donor 1, gMFI max [2] | Cytokine Release Assay (IFNγ), Donor 2, EC50 [2] | Cytokine Release Assay (IFNγ), Donor 2, gMFI max [2] | Cytokine Release Assay (IFNγ), Donor 3, EC50 [2] | Cytokine Release Assay (IFNγ), Donor 3, gMFI max [2] |
| --- | --- | --- | --- | --- | --- | --- | --- | --- | --- | --- | --- | --- | --- | --- | --- | --- |
| Low affinity Control (Control Humanized anti-CD3 (low affinity) scFv-Fc knob/TM with gemtuzumab arm) (bispecific antibody) scFv: EVQLVESGGGLVQPGGSLRLSCAASGFTFSTYAMNWVRQAPGKGLEWVGRIRSKYNNYATYYADSVKGRFTISRDDSKNTLYLQMNSLRAEDTAVYYCVRHGNFGDSYVSWFDYWGQGTLVTVSSGKPGSGKPGSGKPGSGKPGSQAVVTQEPSLTVSPGGTVTLTCGSSTGAVTTSNYANWVQQKPGKSPRGLIGGTNKRAPGVPARFSGSLLGGKAALTISGAQPEDEADYYCALWYSNHWVFGGGTKLTVLGGGGSDKTHTCPPCPAPEFEGGPSVFLFPPKPKDTLMISRTPEVTCVVVDVSHEDPEVKFNWYVDGVEVHNAKTKPREEQYNSTYRVVSVLTVLHQDWLNGKEYKCKVSNKALPASIEKTISKAKGQPREPQVYTLPPCREEMTKNQVSLWCLVKGFYPSDIAVEWESNGQPENNYKTTPPVLDSDGSFFLYSKLTVDKSRWQQGNVFSCSVMHEALHNHYTQKSLSLSPGK heavy: EVQLVQSGAEVKKPGSSVKVSCKASGYTITDSNIHWVRQAPGQSLEWIGYIYPYNGGTDYNQKFKNRATLTVDNPTNTAYMELSSLRSEDTAFYYCVNGNPWLAYWGQGTLVTVSSASTKGPSVFPLAPSSKSTSGGTAALGCLVKDYFPEPVTVSWNSGALTSGVHTFPAVLQSSGLYSLSSVVTVPSSSLGTQTYICNVNHKPSNTKVDKRVEPKSCDKTHTCPPCPAPEFEGGPSVFLFPPKPKDTLMISRTPEVTCVVVDVSHEDPEVKFNWYVDGVEVHNAKTKPREEQYNSTYRVVSVLTVLHQDWLNGKEYKCKVSNKALPASIEKTISKAKGQPREPQVCTLPPSREEMTKNQVSLSCAVKGFYPSDIAVEWESNGQPENNYKTTPPVLDSDGSFFLVSKLTVDKSRWQQGNVFSCSVMHEALHNRFTQKSLSLSPGK light: DIQLTQSPSTLSASVGDRVTITCRASESLDNYGIRFLTWFQQKPGKAPKLLMYAASNQGSGVPSRFSGSGSGTEFTLTISSLQPDDFATYYCQQTKEVPWSFGQGTKVEVKRTVAAPSVFIFPPSDEQLKSGTASVVCLLNNFYPREAKVQWKVDNALQSGNSQESVTEQDSKDSTYSLSSTLTLSKADYEKHKVYACEVTHQGLSSPVTKSFNRGEC | 23700 pM | 59700 gMFI | 5020 pM | 122000 gMFI | 6680 pM | 82100 gMFI | 299 pM | 104000 gMFI | 308 pM | 2.92e+06 gMFI | 14400 pM | 129000 gMFI | 16400 pM | 712000 gMFI | 11400 pM | 1.08e+06 gMFI |
| CD3 × CD33-BspAb38 (bispecific antibody) chain 1: not shown chain 2: EVQLVQSGAEVKKPGSSVKVSCKASGYTITDSNIHWVRQAPGQSLEWIGYIYPYNGGTDYNQKFKNRATLTVDNPTNTAYMELSSLRSEDTAFYYCVNGNPWLAYWGQGTLVTVSSASTKGPSVFPLAPSSKSTSGGTAALGCLVKDYFPEPVTVSWNSGALTSGVHTFPAVLQSSGLYSLSSVVTVPSSSLGTQTYICNVNHKPSNTKVDKRVEPKSCDKTHTCPPCPAPEFEGGPSVFLFPPKPKDTLMISRTPEVTCVVVDVSHEDPEVKFNWYVDGVEVHNAKTKPREEQYNSTYRVVSVLTVLHQDWLNGKEYKCKVSNKALPASIEKTISKAKGQPREPQVCTLPPSREEMTKNQVSLSCAVKGFYPSDIAVEWESNGQPENNYKTTPPVLDSDGSFFLVSKLTVDKSRWQQGNVFSCSVMHEALHNRFTQKSLSLSPGK chain 3: DIQLTQSPSTLSASVGDRVTITCRASESLDNYGIRFLTWFQQKPGKAPKLLMYAASNQGSGVPSRFSGSGSGTEFTLTISSLQPDDFATYYCQQTKEVPWSFGQGTKVEVKRTVAAPSVFIFPPSDEQLKSGTASVVCLLNNFYPREAKVQWKVDNALQSGNSQESVTEQDSKDSTYSLSSTLTLSKADYEKHKVYACEVTHQGLSSPVTKSFNRGEC | 1490 pM | 23300 gMFI | 413 pM | 64800 gMFI | 717 pM | 50500 gMFI | 1720 pM | 75800 gMFI | 8380 pM | 555000 gMFI |  | 4320 gMFI | 13400 pM | 18000 gMFI | 6380 pM | 98500 gMFI |
| CD3 × CD33-BspAb116 (bispecific antibody) chain 1: NFMLTQPHSVSESPGKTVTISCTRSSGSIASNYVQWYQQRPGSSPTTVIYEDNQRPSGVPDRFSGSIDSSSNSASLTISGLKTEDEAYYYCQSFDSSNRVFGCGTKLTVLGGGGSGGGGSGGGGSGGGGSQVQLQESGPGLVKPSQTLSLTCTVSGGSISSGGYYWSWIRQHPGKCLEWIGYIYYSGSTYYNPSLKSRVTISVDTSKDQFSLKLSSVTAADTAVYYCARERKTSLPFDIWGQGTMVTVSSDKTHTCPPCPAPEFEGGPSVFLFPPKPKDTLMISRTPEVTCVVVDVSHEDPEVKFNWYVDGVEVHNAKTKPREEQYNSTYRVVSVLTVLHQDWLNGKEYKCKVSNKALPASIEKTISKAKGQPREPQVYTLPPCREEMTKNQVSLWCLVKGFYPSDIAVEWESNGQPENNYKTTPPVLDSDGSFFLYSKLTVDKSRWQQGNVFSCSVMHEALHNHYTQKSLSLSPGK chain 2: EVQLVQSGAEVKKPGSSVKVSCKASGYTITDSNIHWVRQAPGQSLEWIGYIYPYNGGTDYNQKFKNRATLTVDNPTNTAYMELSSLRSEDTAFYYCVNGNPWLAYWGQGTLVTVSSASTKGPSVFPLAPSSKSTSGGTAALGCLVKDYFPEPVTVSWNSGALTSGVHTFPAVLQSSGLYSLSSVVTVPSSSLGTQTYICNVNHKPSNTKVDKRVEPKSCDKTHTCPPCPAPEFEGGPSVFLFPPKPKDTLMISRTPEVTCVVVDVSHEDPEVKFNWYVDGVEVHNAKTKPREEQYNSTYRVVSVLTVLHQDWLNGKEYKCKVSNKALPASIEKTISKAKGQPREPQVCTLPPSREEMTKNQVSLSCAVKGFYPSDIAVEWESNGQPENNYKTTPPVLDSDGSFFLVSKLTVDKSRWQQGNVFSCSVMHEALHNRFTQKSLSLSPGK chain 3: DIQLTQSPSTLSASVGDRVTITCRASESLDNYGIRFLTWFQQKPGKAPKLLMYAASNQGSGVPSRFSGSGSGTEFTLTISSLQPDDFATYYCQQTKEVPWSFGQGTKVEVKRTVAAPSVFIFPPSDEQLKSGTASVVCLLNNFYPREAKVQWKVDNALQSGNSQESVTEQDSKDSTYSLSSTLTLSKADYEKHKVYACEVTHQGLSSPVTKSFNRGEC | 126 pM | 24500 gMFI | 45 pM | 66000 gMFI | 121 pM | 52800 gMFI | 171 pM | 65800 gMFI |  | 187000 gMFI |  | 5440 gMFI | 177 pM | 14100 gMFI | 1510 pM | 167000 gMFI |
| CD3 × CD33-BspAb37 (bispecific antibody) chain 1: not shown chain 2: EVQLVQSGAEVKKPGSSVKVSCKASGYTITDSNIHWVRQAPGQSLEWIGYIYPYNGGTDYNQKFKNRATLTVDNPTNTAYMELSSLRSEDTAFYYCVNGNPWLAYWGQGTLVTVSSASTKGPSVFPLAPSSKSTSGGTAALGCLVKDYFPEPVTVSWNSGALTSGVHTFPAVLQSSGLYSLSSVVTVPSSSLGTQTYICNVNHKPSNTKVDKRVEPKSCDKTHTCPPCPAPEFEGGPSVFLFPPKPKDTLMISRTPEVTCVVVDVSHEDPEVKFNWYVDGVEVHNAKTKPREEQYNSTYRVVSVLTVLHQDWLNGKEYKCKVSNKALPASIEKTISKAKGQPREPQVCTLPPSREEMTKNQVSLSCAVKGFYPSDIAVEWESNGQPENNYKTTPPVLDSDGSFFLVSKLTVDKSRWQQGNVFSCSVMHEALHNRFTQKSLSLSPGK chain 3: DIQLTQSPSTLSASVGDRVTITCRASESLDNYGIRFLTWFQQKPGKAPKLLMYAASNQGSGVPSRFSGSGSGTEFTLTISSLQPDDFATYYCQQTKEVPWSFGQGTKVEVKRTVAAPSVFIFPPSDEQLKSGTASVVCLLNNFYPREAKVQWKVDNALQSGNSQESVTEQDSKDSTYSLSSTLTLSKADYEKHKVYACEVTHQGLSSPVTKSFNRGEC | 172 pM | 31600 gMFI | 10 pM | 70600 gMFI | 42 pM | 59200 gMFI | 53 pM | 82300 gMFI | 252 pM | 1.06e+06 gMFI |  | 5560 gMFI | 140 pM | 32900 gMFI | 1760 pM | 317000 gMFI |
